Laboratory results from patent US20210388087A1 (Chugai, published 2021).
Numbering of substitutions follows the chain as printed.

B1: GLS3000 F55Y (antibody, name in Kabat numbering, V domains shown)
VH: QVQLVESGGGVVQPGRSLRLSCAASGFTFSNAWMHWVRQAPGKGLEWVAQIKAKSNNYATYYAESVKGRFTISRDDSKNSLYLQMNSLKTEDTAVYYCRYVHYGAYYGVDAWGQGTTVTVSS
VL: DIVMTQSPLSLPVTPGEPASISCRSSQSLVHSNRNTYLHWYQQKPGQAPRLLIYKVSNRYSGVPDRFSGSGSGTDFTLKISRVEAEDVGVYYCGQGTQVPYTFGQGTKLEIK
notes: one-arm IgG as m2
B2: GLS3000 G91Y (antibody, name in Kabat numbering, V domains shown)
VH: B1 VH
VL: B1 VL with Y60F, G96Y
notes: one-arm IgG as m2
B3: GLS3000 G89N (antibody, name in Kabat numbering, V domains shown)
VH: B1 VH
VL: B1 VL with Y60F, G94N
notes: one-arm IgG as m2
B4: GLS3000 H27dQ (antibody, name in Kabat numbering, V domains shown)
VH: B1 VH
VL: B1 VL with H31Q, Y60F
notes: one-arm IgG as m2
B5: GLS3000 H27dD (antibody, name in Kabat numbering, V domains shown)
VH: B1 VH
VL: B1 VL with H31D, Y60F
notes: one-arm IgG as m2
B6: GLS3000 G89L (antibody, name in Kabat numbering, V domains shown)
VH: B1 VH
VL: B1 VL with Y60F, G94L
notes: one-arm IgG as m2
B7: GLS3000 G89V (antibody, name in Kabat numbering, V domains shown)
VH: B1 VH
VL: B1 VL with Y60F, G94V
notes: one-arm IgG as m2
B8: GLS3000 H27dL (antibody, name in Kabat numbering, V domains shown)
VH: B1 VH
VL: B1 VL with H31L, Y60F
notes: one-arm IgG as m2
B9: GLS3000 G89E (antibody, name in Kabat numbering, V domains shown)
VH: B1 VH
VL: B1 VL with Y60F, G94E
notes: one-arm IgG as m2
B10: GLS3000 G91S (antibody, name in Kabat numbering, V domains shown)
VH: B1 VH
VL: B1 VL with Y60F, G96S
notes: one-arm IgG as m2
B11: GLS3000 G91T (antibody, name in Kabat numbering, V domains shown)
VH: B1 VH
VL: B1 VL with Y60F, G96T
notes: one-arm IgG as m2
B12: GLS3000 H27dI (antibody, name in Kabat numbering, V domains shown)
VH: B1 VH
VL: B1 VL with H31I, Y60F
notes: one-arm IgG as m2
B13: GLS3000 H27dN (antibody, name in Kabat numbering, V domains shown)
VH: B1 VH
VL: B1 VL with H31N, Y60F
notes: one-arm IgG as m2
B14: GLS3000 H27dT (antibody, name in Kabat numbering, V domains shown)
VH: B1 VH
VL: B1 VL with H31T, Y60F
notes: one-arm IgG as m2
B15: GLS3000 H27dM (antibody, name in Kabat numbering, V domains shown)
VH: B1 VH
VL: B1 VL with H31M, Y60F
notes: one-arm IgG as m2
B16: GLS3000 G91A (antibody, name in Kabat numbering, V domains shown)
VH: B1 VH
VL: B1 VL with Y60F, G96A
notes: one-arm IgG as m2
B17: GLS3000 G89H (antibody, name in Kabat numbering, V domains shown)
VH: B1 VH
VL: B1 VL with Y60F, G94H
notes: one-arm IgG as m2
B18: GLS3000 G89D (antibody, name in Kabat numbering, V domains shown)
VH: B1 VH
VL: B1 VL with Y60F, G94D
notes: one-arm IgG as m2
B19: GLS3000 G89Q (antibody, name in Kabat numbering, V domains shown)
VH: B1 VH
VL: B1 VL with Y60F, G94Q
notes: one-arm IgG as m2
B20: GLS3000 H27dE (antibody, name in Kabat numbering, V domains shown)
VH: B1 VH
VL: B1 VL with H31E, Y60F
notes: one-arm IgG as m2
B21: GLS3000 G91P (antibody, name in Kabat numbering, V domains shown)
VH: B1 VH
VL: B1 VL with Y60F, G96P
notes: one-arm IgG as m2
B22: GLS3000 H27dF (antibody, name in Kabat numbering, V domains shown)
VH: B1 VH
VL: B1 VL with H31F, Y60F
notes: one-arm IgG as m2
B23: GLS3000 G89K (antibody, name in Kabat numbering, V domains shown)
VH: B1 VH
VL: B1 VL with Y60F, G94K
notes: one-arm IgG as m2
B24: GLS3000 H27dS (antibody, name in Kabat numbering, V domains shown)
VH: B1 VH
VL: B1 VL with H31S, Y60F
notes: one-arm IgG as m2
B25: GLS3000 G89T (antibody, name in Kabat numbering, V domains shown)
VH: B1 VH
VL: B1 VL with Y60F, G94T
notes: one-arm IgG as m2
B26: GLS3000 G89I (antibody, name in Kabat numbering, V domains shown)
VH: B1 VH
VL: B1 VL with Y60F, G94I
notes: one-arm IgG as m2
B27: GLS3000 H27dV (antibody, name in Kabat numbering, V domains shown)
VH: B1 VH
VL: B1 VL with H31V, Y60F
notes: one-arm IgG as m2
B28: GLS3000 G89R (antibody, name in Kabat numbering, V domains shown)
VH: B1 VH
VL: B1 VL with Y60F, G94R
notes: one-arm IgG as m2
B29: GLS3000 G89P (antibody, name in Kabat numbering, V domains shown)
VH: B1 VH
VL: B1 VL with Y60F, G94P
notes: one-arm IgG as m2
B30: GLS3000 H27dR (antibody, name in Kabat numbering, V domains shown)
VH: B1 VH
VL: B1 VL with H31R, Y60F
notes: one-arm IgG as m2
B31: GLS3000 H34D (antibody, name in Kabat numbering, V domains shown)
VH: B1 VH
VL: B1 VL with H39D, Y60F
notes: one-arm IgG as m2
B32: GLS3000 G91E (antibody, name in Kabat numbering, V domains shown)
VH: B1 VH
VL: B1 VL with Y60F, G96E
notes: one-arm IgG as m2
B33: GLS3000 G89W (antibody, name in Kabat numbering, V domains shown)
VH: B1 VH
VL: B1 VL with Y60F, G94W
notes: one-arm IgG as m2
B34: GLS3000 G89M (antibody, name in Kabat numbering, V domains shown)
VH: B1 VH
VL: B1 VL with Y60F, G94M
notes: one-arm IgG as m2
B35: GLS3000 H27dG (antibody, name in Kabat numbering, V domains shown)
VH: B1 VH
VL: B1 VL with H31G, Y60F
notes: one-arm IgG as m2
B36: GLS3000 H27dK (antibody, name in Kabat numbering, V domains shown)
VH: B1 VH
VL: B1 VL with H31K, Y60F
notes: one-arm IgG as m2
B37: GLS3000 G89F (antibody, name in Kabat numbering, V domains shown)
VH: B1 VH
VL: B1 VL with Y60F, G94F
notes: one-arm IgG as m2
B38: GLS3000 H27dW (antibody, name in Kabat numbering, V domains shown)
VH: B1 VH
VL: B1 VL with H31W, Y60F
notes: one-arm IgG as m2
B39: GLS3000 H34F (antibody, name in Kabat numbering, V domains shown)
VH: B1 VH
VL: B1 VL with H39F, Y60F
notes: one-arm IgG as m2
B40: GLS3000 H27dY (antibody, name in Kabat numbering, V domains shown)
VH: B1 VH
VL: B1 VL with H31Y, Y60F
notes: one-arm IgG as m2
B41: GLS3000 H27dP (antibody, name in Kabat numbering, V domains shown)
VH: B1 VH
VL: B1 VL with H31P, Y60F
notes: one-arm IgG as m2
B42: GLS3000 G91D (antibody, name in Kabat numbering, V domains shown)
VH: B1 VH
VL: B1 VL with Y60F, G96D
notes: one-arm IgG as m2
B43: GLS3000 G89A (antibody, name in Kabat numbering, V domains shown)
VH: B1 VH
VL: B1 VL with Y60F, G94A
notes: one-arm IgG as m2
B44: GLS3000 H34E (antibody, name in Kabat numbering, V domains shown)
VH: B1 VH
VL: B1 VL with H39E, Y60F
notes: one-arm IgG as m2
B45: GLS3000 G89Y (antibody, name in Kabat numbering, V domains shown)
VH: B1 VH
VL: B1 VL with Y60F, G94Y
notes: one-arm IgG as m2
B46: GLS3000 H34A (antibody, name in Kabat numbering, V domains shown)
VH: B1 VH
VL: B1 VL with H39A, Y60F
notes: one-arm IgG as m2

target: T1, CD3 epsilon homodimer protein (UniProt P07766 23-126); assay: SPR Biacore T200, CD3e homodimer on chip, vs unaltered GLS3000 antibody
T1 construct: also called CD3 (CD3 epsilon)
T1 sequence (P07766 23-126): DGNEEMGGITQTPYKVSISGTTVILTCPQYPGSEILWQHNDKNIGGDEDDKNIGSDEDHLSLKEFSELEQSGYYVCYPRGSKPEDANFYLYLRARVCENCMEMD

Binder	ratio of amounts bound (Z=Y/X)
B1	0.92
B2	0.17
B3	0.8
B4	0.25
B5	0.22
B6	0.94
B7	1.63
B8	0.3
B9	0.26
B10	0.26
B11	0.26
B12	0.26
B13	0.3
B14	0.29
B15	0.3
B16	0.27
B17	0.7
B18	0.33
B19	0.38
B20	0.23
B21	0.27
B22	0.63
B23	0.4

Binder	ratio of amounts bound (Z=Y/X)
B24	0.32
B25	1.03
B26	1.07
B27	0.3
B28	0.19
B29	0.35
B30	0.31
B31	0.22
B32	0.16
B33	0.5
B34	0.52
B35	0.3
B36	0.29
B37	1.09
B38	0.39
B39	0.27
B40	0.64
B41	0.24
B42	0.16
B43	1.13
B44	0.23
B45	1.19
B46	1.06
